In the supplement of paper PMC9112550, “Optimization of the antimicrobial peptide Bac7 by deep mutational scanning” (BMC Biology, 2022):

Tested on: Escherichia coli TOP10
Assay: shrunken log2 fold change of peptide-encoding DNA abundance (4.5 h post-induction vs induction); higher = less antimicrobial activity (less host growth inhibition)
Details: time post-induction: 4.5 h; library: site-saturation at positions 5, 18, 19, 20
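Further: peptides expressed intracellularly from a pBAD plasmid library in pooled LB shake-flask culture, induced with 0.3% L-arabinose, DNA abundance read by NGS, three biological replicates, DESeq2 with apeglm shrinkage.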

| Sequence | shrunken log2 fold change |
| --- | --- |
| RRIRNRPPRLPRPRPRPSDHPRP | -0.381 |
| RRIRGRPPRLPRPRPRPHCNPRP | 0.427 |
| RRIRMRPPRLPRPRPRPMIYPRP | -0.178 |
| RRIRMRPPRLPRPRPRPLIHPRP | -0.207 |
| RRIRWRPPRLPRPRPRPEHGPRP | 0.265 |
| RRIRIRPPRLPRPRPRPILWPRP | -0.238 |
| RRIRNRPPRLPRPRPRPPYLPRP | -0.269 |
| RRIRKRPPRLPRPRPRPAHFPRP | 0.232 |
| RRIRNRPPRLPRPRPRPQLFPRP | 0.177 |
| RRIRIRPPRLPRPRPRPKWRPRP | 0.188 |
| RRIRARPPRLPRPRPRPKVHPRP | 0.491 |
| RRIRNRPPRLPRPRPRPTMMPRP | 0.0241 |
| RRIRRRPPRLPRPRPRPKDSPRP | 0.191 |
| RRIRARPPRLPRPRPRPAMTPRP | 0.356 |
| RRIRFRPPRLPRPRPRPVGMPRP | 0.348 |
| RRIRFRPPRLPRPRPRPFQLPRP | -0.0751 |
| RRIRARPPRLPRPRPRPGTMPRP | 0.351 |
| RRIRMRPPRLPRPRPRPKFKPRP | -0.0108 |
| RRIRSRPPRLPRPRPRPPTRPRP | 0.651 |
| RRIRGRPPRLPRPRPRPFHQPRP | -0.199 |
| RRIRTRPPRLPRPRPRPEHDPRP | -0.0214 |
| RRIRNRPPRLPRPRPRPYQWPRP | -0.098 |
| RRIRYRPPRLPRPRPRPTNHPRP | -0.709 |
| RRIRMRPPRLPRPRPRPKRIPRP | 0.609 |
| RRIRVRPPRLPRPRPRPRRRPRP | 0.271 |

| Sequence | shrunken log2 fold change |
| --- | --- |
| RRIRVRPPRLPRPRPRPGLAPRP | 0.166 |
| RRIRGRPPRLPRPRPRPQCHPRP | 0.48 |
| RRIRARPPRLPRPRPRPGNIPRP | -0.239 |
| RRIRNRPPRLPRPRPRPLFQPRP | -0.421 |
| RRIRIRPPRLPRPRPRPYNYPRP | -0.65 |
| RRIRMRPPRLPRPRPRPRRAPRP | 1.55 |
| RRIRLRPPRLPRPRPRPQVLPRP | -0.0429 |
| RRIRGRPPRLPRPRPRPQVGPRP | 0.395 |
| RRIRLRPPRLPRPRPRPEWMPRP | -0.00172 |
| RRIRGRPPRLPRPRPRPDMFPRP | 1.92 |
| RRIRHRPPRLPRPRPRPVRHPRP | 0.251 |
| RRIRQRPPRLPRPRPRPHNAPRP | -0.0184 |
| RRIRDRPPRLPRPRPRPRIWPRP | 0.53 |
| RRIRMRPPRLPRPRPRPHLAPRP | 1.6 |
| RRIRVRPPRLPRPRPRPLMRPRP | 0.515 |
| RRIRARPPRLPRPRPRPVWTPRP | 0.527 |
| RRIRFRPPRLPRPRPRPPRFPRP | 0.454 |
| RRIRSRPPRLPRPRPRPSIHPRP | -0.479 |
| RRIRPRPPRLPRPRPRPITTPRP | -0.139 |
| RRIRLRPPRLPRPRPRPIINPRP | -0.448 |
| RRIRIRPPRLPRPRPRPSLKPRP | -0.154 |
| RRIRIRPPRLPRPRPRPWQWPRP | -0.108 |
| RRIRGRPPRLPRPRPRPCIFPRP | 0.426 |
| RRIRLRPPRLPRPRPRPNIKPRP | -0.321 |
| RRIRHRPPRLPRPRPRPMHHPRP | -0.154 |

| Sequence | shrunken log2 fold change |
| --- | --- |
| RRIRNRPPRLPRPRPRPRDDPRP | 0.145 |
| RRIRMRPPRLPRPRPRPTQLPRP | 0.668 |
| RRIRHRPPRLPRPRPRPVRYPRP | -0.551 |
| RRIRFRPPRLPRPRPRPMMKPRP | -0.0975 |
| RRIRCRPPRLPRPRPRPYNMPRP | -0.188 |
| RRIRFRPPRLPRPRPRPTGGPRP | 0.259 |
| RRIRARPPRLPRPRPRPRDAPRP | 0.91 |
| RRIRKRPPRLPRPRPRPGMGPRP | 0.606 |
| RRIRARPPRLPRPRPRPYNTPRP | -0.606 |
| RRIRARPPRLPRPRPRPSERPRP | -0.132 |
| RRIRWRPPRLPRPRPRPNACPRP | 0.478 |
| RRIRMRPPRLPRPRPRPHSDPRP | 2.6 |
| RRIRIRPPRLPRPRPRPILFPRP | -0.273 |
| RRIRVRPPRLPRPRPRPACYPRP | -0.0764 |
| RRIRMRPPRLPRPRPRPSQCPRP | -0.112 |
| RRIRRRPPRLPRPRPRPFKQPRP | -0.182 |
| RRIRQRPPRLPRPRPRPCLMPRP | -0.0141 |
| RRIRHRPPRLPRPRPRPSCVPRP | -0.308 |
| RRIRERPPRLPRPRPRPSKLPRP | -1.06 |
| RRIRDRPPRLPRPRPRPSHSPRP | -0.127 |
| RRIRRRPPRLPRPRPRPFKEPRP | 0.00168 |
| RRIRMRPPRLPRPRPRPWPGPRP | 0.528 |
| RRIRHRPPRLPRPRPRPKCIPRP | -0.021 |
| RRIRCRPPRLPRPRPRPHRRPRP | -0.167 |
| RRIRQRPPRLPRPRPRPDTCPRP | 0.0121 |

| Sequence | shrunken log2 fold change |
| --- | --- |
| RRIRLRPPRLPRPRPRPDDGPRP | -0.00277 |
| RRIRCRPPRLPRPRPRPRAEPRP | 0.539 |
| RRIRPRPPRLPRPRPRPTAPPRP | 0.528 |
| RRIRPRPPRLPRPRPRPGGTPRP | 0.269 |
| RRIRFRPPRLPRPRPRPWCWPRP | 0.155 |
| RRIRWRPPRLPRPRPRPHENPRP | 0.0568 |
| RRIRARPPRLPRPRPRPIMQPRP | -0.0531 |
| RRIRSRPPRLPRPRPRPVYRPRP | -0.398 |
| RRIRTRPPRLPRPRPRPCAFPRP | -0.0344 |
| RRIRFRPPRLPRPRPRPACKPRP | -0.0419 |
| RRIRGRPPRLPRPRPRPWGRPRP | 0.413 |
| RRIRPRPPRLPRPRPRPSMRPRP | 0.501 |
| RRIRCRPPRLPRPRPRPSMLPRP | -0.727 |
| RRIRTRPPRLPRPRPRPVQVPRP | 0.0995 |
| RRIRVRPPRLPRPRPRPMDQPRP | 0.188 |
| RRIRIRPPRLPRPRPRPSFCPRP | -0.656 |
| RRIRVRPPRLPRPRPRPNNDPRP | -0.335 |
| RRIRARPPRLPRPRPRPPCCPRP | 0.571 |
| RRIRSRPPRLPRPRPRPIYRPRP | 0.0394 |
| RRIRNRPPRLPRPRPRPHFMPRP | -0.409 |
| RRIRMRPPRLPRPRPRPALKPRP | 1.09 |
| RRIRYRPPRLPRPRPRPCLTPRP | -0.125 |
| RRIRGRPPRLPRPRPRPLRSPRP | 1.67 |
| RRIRNRPPRLPRPRPRPHHEPRP | -0.534 |
| RRIRKRPPRLPRPRPRPWWWPRP | -0.0108 |

| Sequence | shrunken log2 fold change |
| --- | --- |
| RRIRGRPPRLPRPRPRPQEFPRP | 0.27 |
| RRIRCRPPRLPRPRPRPDKPPRP | 0.0422 |
| RRIRCRPPRLPRPRPRPCYSPRP | -0.379 |
| RRIRDRPPRLPRPRPRPCMLPRP | 1.36 |
| RRIRGRPPRLPRPRPRPFDMPRP | 0.255 |
| RRIRLRPPRLPRPRPRPHGAPRP | 0.0606 |
| RRIRVRPPRLPRPRPRPDIGPRP | -0.173 |
| RRIRNRPPRLPRPRPRPVCHPRP | -0.169 |
| RRIRNRPPRLPRPRPRPPDCPRP | 0.036 |
| RRIRARPPRLPRPRPRPLFAPRP | 0.647 |
| RRIRARPPRLPRPRPRPQGEPRP | 0.294 |
| RRIRWRPPRLPRPRPRPHTVPRP | 0.00981 |
| RRIRRRPPRLPRPRPRPKRHPRP | 0.227 |
| RRIRCRPPRLPRPRPRPTNQPRP | -0.427 |
| RRIRMRPPRLPRPRPRPTTRPRP | 0.832 |
| RRIRMRPPRLPRPRPRPVPYPRP | 0.193 |
| RRIRDRPPRLPRPRPRPGMPPRP | -0.221 |
| RRIRSRPPRLPRPRPRPFPGPRP | 0.0161 |
| RRIRNRPPRLPRPRPRPKSDPRP | -0.168 |
| RRIRARPPRLPRPRPRPGIAPRP | 0.331 |
| RRIRRRPPRLPRPRPRPPPGPRP | 1.05 |
| RRIRIRPPRLPRPRPRPFNIPRP | -0.93 |
| RRIRQRPPRLPRPRPRPHQRPRP | 0.153 |
| RRIRRRPPRLPRPRPRPPPPPRP | 1.03 |
| RRIRERPPRLPRPRPRPFTHPRP | -0.0134 |

| Sequence | shrunken log2 fold change |
| --- | --- |
| RRIRRRPPRLPRPRPRPFAPPRP | 0.368 |
| RRIRGRPPRLPRPRPRPITVPRP | -0.0412 |
| RRIRARPPRLPRPRPRPGSQPRP | 0.368 |
| RRIRERPPRLPRPRPRPLACPRP | -0.269 |
| RRIRMRPPRLPRPRPRPEFDPRP | 2.44 |
| RRIRERPPRLPRPRPRPSAIPRP | -0.115 |
| RRIRERPPRLPRPRPRPSCFPRP | -0.322 |
| RRIRTRPPRLPRPRPRPMNTPRP | -0.609 |
| RRIRRRPPRLPRPRPRPWCPPRP | -0.0442 |
| RRIRCRPPRLPRPRPRPQFAPRP | -0.239 |
| RRIRYRPPRLPRPRPRPNGKPRP | -0.186 |
| RRIRQRPPRLPRPRPRPYCSPRP | -0.132 |
| RRIRERPPRLPRPRPRPAFVPRP | 0.121 |
| RRIRERPPRLPRPRPRPDVLPRP | -0.138 |
| RRIRNRPPRLPRPRPRPLDTPRP | -0.0954 |
| RRIRERPPRLPRPRPRPGCSPRP | -0.0673 |
| RRIRQRPPRLPRPRPRPYIKPRP | -1.38 |
| RRIRFRPPRLPRPRPRPAECPRP | -0.16 |
| RRIRGRPPRLPRPRPRPVCTPRP | 0.73 |
| RRIRPRPPRLPRPRPRPREFPRP | 0.485 |
| RRIRIRPPRLPRPRPRPPNRPRP | -0.462 |
| RRIRARPPRLPRPRPRPWKIPRP | -0.117 |
| RRIRHRPPRLPRPRPRPFYYPRP | -0.0287 |
| RRIRPRPPRLPRPRPRPEMCPRP | 0.291 |
| RRIRQRPPRLPRPRPRPPDKPRP | -0.116 |
